These are literature values, as cited in publication PMC9331257.

What is called Kd is a measure of binding affinity in units of concentration. One may read the Ki as a dissociation constant, usually derived from enzyme kinetics or from competition with a known ligand.

Bounds are passed on as bounds.

Series [1] deals with PAC1R (Homo sapiens) (UniProt P41586). The series is described as follows: radioligand binding.
Series [2] addresses PACAP type II receptor (Homo sapiens) (UniProt P32241). The series can be described thus: radioligand binding.
Series [3] has as its target VPAC1R (Homo sapiens) (UniProt P32241). The series is described as follows: [125I]VIP displacement.
The target in series [4] is PAC1R (Homo sapiens) (UniProt P41586). The series is described as follows: [125I]Ac-His1-PACAP27 displacement.
Series [5] addresses VPAC2R (Homo sapiens) (UniProt P41587). The series can be described thus: [125I]Ac-His1-PACAP27 displacement.
In series [6] the target is PAC1R (Homo sapiens) (UniProt P41586). The series can be described thus: radioligand.
Series [7] deals with PACAP type II receptor (Homo sapiens) (UniProt P32241). The series is described as follows: radioligand.

UniProt P41586, sequence (P41586 21-468): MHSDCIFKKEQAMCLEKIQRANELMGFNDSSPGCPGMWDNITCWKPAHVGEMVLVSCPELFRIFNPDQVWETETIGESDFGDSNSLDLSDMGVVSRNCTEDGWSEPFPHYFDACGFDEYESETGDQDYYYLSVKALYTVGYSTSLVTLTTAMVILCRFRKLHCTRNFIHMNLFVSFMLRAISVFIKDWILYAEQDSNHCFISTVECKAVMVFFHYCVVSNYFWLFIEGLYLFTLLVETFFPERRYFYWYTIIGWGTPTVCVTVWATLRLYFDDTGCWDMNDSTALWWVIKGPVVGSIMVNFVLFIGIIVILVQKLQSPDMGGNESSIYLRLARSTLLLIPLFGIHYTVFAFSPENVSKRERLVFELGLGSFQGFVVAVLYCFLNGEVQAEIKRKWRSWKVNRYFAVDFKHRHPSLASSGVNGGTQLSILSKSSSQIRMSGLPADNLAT
PACAP, sequence (P18509 82-129): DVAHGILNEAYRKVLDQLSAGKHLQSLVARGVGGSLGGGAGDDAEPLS
VIP, sequence (P01282 125-152): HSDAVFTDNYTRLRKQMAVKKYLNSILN
UniProt P41587, sequence (P41587 24-438): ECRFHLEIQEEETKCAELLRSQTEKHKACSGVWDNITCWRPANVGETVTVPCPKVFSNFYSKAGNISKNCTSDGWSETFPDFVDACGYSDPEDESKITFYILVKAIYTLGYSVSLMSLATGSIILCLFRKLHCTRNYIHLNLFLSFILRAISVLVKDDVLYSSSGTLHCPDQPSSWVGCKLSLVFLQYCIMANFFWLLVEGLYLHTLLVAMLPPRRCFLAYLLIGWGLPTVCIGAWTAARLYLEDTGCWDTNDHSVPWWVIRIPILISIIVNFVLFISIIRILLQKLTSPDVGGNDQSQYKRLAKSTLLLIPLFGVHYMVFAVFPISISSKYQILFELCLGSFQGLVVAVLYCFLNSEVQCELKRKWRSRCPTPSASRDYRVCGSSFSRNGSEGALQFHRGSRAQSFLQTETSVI

As to PACAP (from UniProt P18509), the Kd in series [1] and in series [2] was 0.5 nM in each case.
Regarding PACAP(6-38) 6-38 (from UniProt P18509), the Ki in series [3] was 600 nM; in series [4] it was 30 nM; in series [5], 40 nM.
With VIP (from UniProt P01282), the values for the Kd in series [6] and in series [7] were > 500 nM and 0.5 nM, respectively.
